One substance from US20030049259A1 can be followed below.

This experiment concerns the target E-cadherin (human) (UniProt P12830). As to the kind of experiment: cell-based or functional assay.
UniProt P12830, sequence (P12830 155-882): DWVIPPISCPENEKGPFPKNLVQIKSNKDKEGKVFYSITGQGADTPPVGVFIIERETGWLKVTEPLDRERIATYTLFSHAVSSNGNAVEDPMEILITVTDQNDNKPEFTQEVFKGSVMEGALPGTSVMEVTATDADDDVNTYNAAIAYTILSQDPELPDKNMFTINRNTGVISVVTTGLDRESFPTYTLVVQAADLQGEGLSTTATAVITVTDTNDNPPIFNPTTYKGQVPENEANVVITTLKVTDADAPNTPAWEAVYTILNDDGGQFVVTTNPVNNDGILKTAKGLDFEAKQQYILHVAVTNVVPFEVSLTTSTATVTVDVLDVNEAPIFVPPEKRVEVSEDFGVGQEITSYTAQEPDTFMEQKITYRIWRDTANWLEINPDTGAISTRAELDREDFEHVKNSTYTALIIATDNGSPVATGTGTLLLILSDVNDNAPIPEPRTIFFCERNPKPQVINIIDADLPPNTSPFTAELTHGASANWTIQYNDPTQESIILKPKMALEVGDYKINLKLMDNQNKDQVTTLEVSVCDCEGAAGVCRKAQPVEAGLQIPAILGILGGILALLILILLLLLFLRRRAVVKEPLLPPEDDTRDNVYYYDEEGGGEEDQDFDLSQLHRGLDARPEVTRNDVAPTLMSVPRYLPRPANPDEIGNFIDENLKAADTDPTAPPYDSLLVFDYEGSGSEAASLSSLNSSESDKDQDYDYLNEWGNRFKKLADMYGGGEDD

In turn, “E4.6 (mouse anti-human E-cadherin, IgG1) (antibody)” came in with a blocking of ilEL binding to 16E6.A5 monolayers in 1 mM Ca2+, Mg2+ and Mn2+ (FIG. 3A) of 55%; a blocking of ilEL binding to 16E6.A5 monolayers in the absence of Ca2+ and Mn2+ (FIG. 3B) of 0%.
